# In the RNAGym collection of RNA variant scans (doi:10.1073/pnas.2313332121):
# B1: TPR t1 (parent)
# chain: GACCAAUCUGCCCUCAGAGCUCGAGAACAUCUUCGGAUGCAGAGGAGGCAGGCUUCGGUGGCGCGAUAGCGCCAACGUCCUCAACCUCCAAUGCAUCCCACCACAUGAUGAUGCCUGAAGAGCCUUGGUUUUUUG
# Variants of: B1
# Experiment: polymerase ribozyme fitness, log enrichment relative to wild type (log ratio); higher = more active; in vitro selection for triplet polymerase activity
# How it was run: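 Fitness is a logarithmic measure of how a genotype enriched relative to the wild type, with replicate averages weighted by inverse variance. The logarithm uses base 2, and enrichment came from Illumina sequencing of input and output libraries. Those libraries were PCR-built, transcribed mutants of each subunit of a heterodimeric triplet polymerase ribozyme, passed through one triplicate in vitro selection round that included frozen incubation at −7 °C, gel excision of extended constructs and streptavidin-bead capture. Genotypes were kept only if they had ≥10 input reads and ≥1 read per output.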
row,Variant,polymerase ribozyme fitness (log ratio)
1,GACCAAUCUGCCCUCAGAGCUCGAGAACAUCUUCGGAUGCAGAGGGGGCAGGCUUCGGUGGCGCGAUAGCGCCAACGUCCUCAACCUCCAAUGCAUCCCACCACAUGAUUAUGCCAGAAGAGCCUUGGUUUUUUG,-4.29
2,GACCAAUCUGCCCUCAGAGCUCGGGAACAUCUUCGGAUGCAGAGGAGGCAGGCGUCCGUGGCGCGAUAGCGCCAACGUCCUCAACCUCCAAUGCAUCCCACCACAUGAUGAUGCCUGAAGAGCUUUGGUUUUUUG,-2.01
3,GACCAAUCUGCCCUCAGAGCUCGAGAACAUCUUCGGAUGCAGAGGAGGCAGGCUUCGGUGGCGCGAUAGCGCCAACGUCCUCAACCUCCAAUGAAUCCCACCACAUGAAGAUGCCUGAAGAGCCUUGGUUUUUUG,-5.96
4,GACCAAUCUGCCCUCAGAGCUCGAGAACAUCUUCGGAUGCAGAGGAGGCAGGCUUCGGUGGCGCGAUAGCGCCAACGUCCUCAACCUCCAAUGGAUCCCACCACAUGAUGAUGCCUGAAGAGCCUUGGUAUUUUU,-1.4
5,GACCAAUCUGCCCUCAGAGCUCGAGAACAUCUUCGGGUGCAGAGGAGGCAGGCUUCGGUGGCGCGAUAGCGCCAACGUCCUCCACCUCCAAUGCAUCCCACCACAUGAUGAUGCCUGAAGAGCCAUGGUUUUUUG,-0.963
6,GACCAAUCUGCCCUCAGAGCUCGAGAACAUCUUCGGAUGCAGAGGAGGCAGGCUUCGGUGGCGCGAUAGCGCCAACGUCCUCAACCUCCAAUGCCUCCCACCACAUGAUAAUGCCUGAAGAGCCUUGGUUUUUUG,-2.49
7,GACCAAUCUGCCCUCAGAUCUCGAGUACAUCUUCGGAUGCAGAGGAGGCAGGCUUCGGUGGCGUGAUAGCGCCAACGCCCUCAACCUCCAAUGCAUCCCACCACAUGAUGAUGACUGAAGAGCCUUGGUUUUUUG,-1.82
8,GACCAAUCUGCCGUCAGAGCUCGAGAACAUCUUCGGAUGCAGAGGAGGCAGGCUUCGUUCGCGCGAUAGCGCCAACGUCCUCAACCUCCAAUGCAUCCCACCACAUGAUGAUGCCUGAAGAGCCUUGGUUUUUUG,-2.45
9,GUCCAAUCUGCCCUCAGAGCUCGAGAACAUCUUCGGAUGAAGAGGAGGCAGGCUUCGGUGGCGCGAUAGCGCCAACGUCCUCAACCUCCAAUGCAUCCCACCACAUGAUGAUGCCUGAAGAGCCUUGGUUUUUUG,-3.29
10,GACCAAUCUGCCCUCAGAGCUCGAGAACAUCUUCGGAUUCAGAGGAGGCAGGCUUCGGUAGCGCGAUAGCGCCAACGUCCUCAACCUCCAAUGCAUCCCACCACAUGAUGAUGCCUGAAGAGCCUUGGUUUUUUG,0.0157
11,GACCAAUCUGCCCUCAGAGCUCGAGAACAUCUUCGGAUGCAGAGGAGGCAGGCUUCGGAGGGGCGAUAGCGCCAACGUCCUCAACCUCCAAUGCAUCCCACCACAUGAUGAUGCCUGAAGAGCCUUGGUUUUUUG,-5.21
12,GACCAAUCUGCCCUCAGAGCUCGAGAACAUCUUCGGAUGCAUAGGAGGCUGGCUUCGGUGGCGCGAUAUCGCCAACGUCCUCAACCUCCAAUGCAUCCCACCACGUGAUGAUGCCUGAAGAGCCUUGGUUUUUUG,-3.63
13,GACCAUUCUGCCCUCAGAGCUCGAGUACAUCUUAGGAUGCAGUGGAGGCAGGCUUCGGUGGCGCGAUAGCGCCAACGUCCUCAACCUCCAAUGCAUCCCACCACAUGAUGAUGCCUGAAGCGCCUUGGUUUUUUG,-7.38
14,GACCAAUCUGCCCUCAGAGCUCGAGAACAUCUUCGGAUGCAGAGGAGGCCGGCUUCGGUGGAGCGAUAGCGCCAACGUCCUCAACCUCCAAUGCAUCCCACCACAAGAUGGUGUCUGAAGAGACUUGGUUUUUUG,-5.42
15,GACCAAACUGCCGUCAGAGCUCGAGAACAUCCUCGGAGGCAGAGGAGGCAGGCUUCGGUGGCCCGAUAGCGCCAACGUCCUCAACCUCCAAUGCAUCCCACCACAUGAUGAUGCCUGAAGAGCCUUGGUUUUUUG,-2.61
16,GACCAAUCUGCCCUCAGAGCUCGAGAACAUCUUCGGAUGCAGAGGAGGCAGGCUUCGGUGGCGCGAUAGCGUCAACGUCCUCAACCUCCAAUACAUCCCACCACAUGAUGAUGCCUGAAGAGCCUUGGUUUUUUG,-0.542
17,GAUCAAUCUGCACUCAGAGCUCGAGAACAUCUUCGGAUGCAGAGGAGGCAGGCUUCGGUGGCGCGAUAGCGCCAACGUGCUCAACCUCCAAUGCAUCCCACCACAUGAUGAUGCCUGAAGAGCCUUGGUUUUUUG,-2.97
18,GACCAAUCUGCCCUCAGACCUCGAGAACAUCUUCGGAUGCAGAGAAGGCAGGCUUCGGUAGCGCGAUAGCGCCAACGUCCUCAACCUCCAAUGCAUCCCACCACAAGAUGAUGCCUGAAGAGCCUUGGUUUUUUG,-4.35
19,GACCAAUCUGCCCUCAGAGCUCGAGAACAUCUUCGUAUGCAGAGGAGGCAGGCUUCGGUGGCGCGAUAGCGCCAACGUCCUCAACCUGCAUUGCAUCCCACCACAUGAUGAUGCCUGAAGAGCCUUGGUUUUUUG,-6.86
20,GACCAAUCUGCCCUCAGAGCUCGAGAACAUCUUCGGAUGCAGAGGAGGCAGGCUUCGGUGGCGUGAUAGCGCCAACGUCCUCAACAUCCAAUGCAUCCCACCACAUGAUGAUGCCUGAAGAGCCUUGGUUUUUUG,-1.42
21,GACCUAUCUGCCCUCAGAGCUCGAGAACAUCUUCGGAUGCAGAGGAGGCAGGCUUCGGUGGCGCGAUAGAGCCAACGUCCUCAACCUCCAAUGCAUCCCACCACAUGAUGAUGCCUGAAGAGCCUUGGUUUUUUG,-2.56

row,Variant,polymerase ribozyme fitness (log ratio)
1,GACCAAUCUGCCCUCAGAGCUCGAGAACAUCUUCGGAUGCAGAGGAGGCAGGGUUCGGUGGCGCGAUAGCGCCAACGUCCUCAACCUCCAAUGCAUCCCACCACAUGAUGAUGGCUGAAGAGCCUUGGUUUUUUG,-3.08
2,GACCAAUCUGCCCUCAGAGCUCGAGAACAUCUUCGGAUGCAGAGGAGGCAGGCUUCGGUGGCGCGAUAGCGCCAACGUCCUCAACCUCCAAUGCAUCCCACCACAUGAGGAUGCCUGAAGAGCCUUGGUUUAUUG,-3.91
3,GACCAAUCUGCCCUCAGAGCACGAGAACAUCUUCGGAUGCAGAGGAGGCAGGCUUCGGUGGCGCGAUAGCGCCAACGUCCUCAACCUCCAAUGCAUCCCACCACAUGAUGAUGCCUGAAGAGCCUUGCUUUUUUG,-2.29
4,GACCAAUCUGCCUUCAUAGCUCGAGAACAUUUUCGGAUGCAGAGGAGGCAGGCUUCGGUGGCGCGAUAGCGCCAACGUCCUCAACCUCCAAUGCAUCCCACCACAAGAUGAUGCUUGAAGAGCCUUGGUUUUUUG,-1.65
5,GACCAAUCUGCCCUCAGAGCUCGAGAACAUCUUCGGAUGCAGAGGAGGCAGGCUUCGGUGACGCGAUAGCGCCAACGUCCUCAACCUCCAAUGCAUCCCACCACAUGAUGACGCCUGAAGAGCCUUGGUUUUUUG,1.57
6,GACCAAUCUGCCCUCAGAGCUCGAGAACAUCUUCGGAUGCAGAGGAGGCAGGCUUCGGUAGCGCGAUAUCGUCAACGUCCUCAACGUCCAAUGCAUCCCACCACAUGAUGAUGCCUGUAGAGCCUUGGAUUUUUG,-5.04
7,GACCAAUCUGCUCUCAGAGUUCGAGAACAUCUUCGGAUGCAGUGGAGGCAGGCUUCGGUGGCGCGAUAGCGUCAACGUCCUAAACCUCCAAUGCAUCCCACCACAUGAUGAAGGCUGAAGAGCCUUGGUUUUUUG,-2.38
8,GAUCAAUCUGCCCUCAGAGCUCGAGAACAUCUUCGGAUGCAGAGGAGGCAGGAUUCGGUGGCGCGAUAGCGGCAACGUCCUCAACCUCCAAUGCAUCCCACCACAUGAUGAUGCCUGAAGAGCCUUGGUUUUUUG,-1.22
9,GACCAACCGGCCCUCAGAGCUCGAGGACAUCUUCGGAUGCAGAGGAGGCAGGCUUCGGUGGCGCGAUAGCGACAACGUCCUCAACCUCCAAUGCAUCCCACCACAUGAUGAUGCCUGAAGAGCCUUGGUUUUUUG,-1.08
10,GACCGAUCUGCACUCAGAGCUCGAGAACAUCUUCGGAUGCAGAGGAGGCAGGCUUCGGUGGCGCGAUAGCGCAAACGUCCUCAACCUCCAAUGCAUCCCACCACAUGAUGAUGCCUGAAGAGCCUUGGUUUUUUG,-0.594
11,GACCAAUCUGCCCUCAGAGCUCGAGAACAUCUUCGGAUGAAGAGGAGGCAGGCUUCGGUGGCGCGAUAGCGCUAACGUCCUCAACCUCCAAUGCAUCCCACCACAUGAUGAUGCCUGAAGAGCCUUGGUUUUUUG,-1.17
12,GACCAAUCUGCCCUCAGAGCUCGAGAACAUCUUCGGAUGCAGAGGAGGCAGGCUUCGGUGACGCGAUACCGCCAACGUCCUCAACCUCCAAUGCAUCCCACCACAUGAUGAUGCCUGAAGAGCCUUGGUUUUUUG,-3.18
13,GACCAAUCUGCCCUCAGAGCUCGAGAACAUCUUCGGAUUCAGAGGAGGCAGGCUUCGGUGGCGCGAUAGCGCCAACGUCCUCAACCUCCAAUGCAUCCCACCACAUGAUGAUGCCUCAAGAGCCUUGGUUUUUUG,-4.79
14,GACCAAUCUGCCCUCAGAGCUCGAGUACAUCUUCGGAUGCAGAGGAGGCAGGCUUCGGUGGCGCGAUAGCGCCAACGUCCUCAACCUCCAAUGCAUCCCACCACAUGAUGAUGCCUGAAGAGCCUUGGUUUUUUG,-2.98
15,GACUAAUCUGCCCUCAGAGCUCGAGAACAUCUUCGGAUGCAGAGGAGGCAGGCUUCGGUGGCGCGAUAGUGCCAACGUCCUCAACCUCCAAUGCAUCCCACCACAUGAUGAUGCCUGAAGAGCCUUGGUUUUUUG,-0.878
16,GACCAAUUUGCCUUCAGAGCUCGAGAAGAUCUUCGGAUGCAGAGGAGGCAGGCUUCGGUGGCGCGAUAGCGCCAACGUCCUGAACCUCCAAUGCAUCCCACCACAUGAUGAUGGCUGAAGAGCCUUGGUUUUUUG,-4.82
17,GACCAAUCUGCCCUCAGAGCUCGAGAACAUCUUCGGAUGCAGAGGAGGCAGGCUUCGGUGGCACGAUAGCGCCAACGUCCUCAACCUCCAAUGCAGCCCACCACAUGAUGAAGCCUGAAGAGCCUUGGUUUUUUG,-1.56
18,GACCAAUCCGCCCUCAGAGCUCGAGAACAUAUUCGGAUGCAGAAGAUGCAGGCUUCGGUGGCGCGAUAUCGCCAACGUCCUCAACCUUCAAUGCAUCCCACCACAUGAUGAUGCCUGUAGAGCCUUGGUUUUGUG,-4.68
19,GACCAAUCUGCCCUCAGAGCUCGAGAACAUCUUCGGAUGAAGAGGAGGCAGGCUUCGGUGGCGCGAUAGCGCUAACGUCCUCAACCUCCAAUGCAUCCCACCACAUGAUGAUGCCUGAAGAGCCUUGUUUUUUUG,-3.11
20,GACCAAUCUGCCCUCAGAGCACGAGAACAUCUGCGGAUGCACUGGAGGCAGGCUUCGGUGGCUCGAUAGCGCCAACGUCCUCAACCUCCAAUGCAUCCCACCACAUGAUGAUGCCUAAAGAGCCUUGGUUUUUUG,-6.65
21,GACCAAUCUGCCCUCAGAGGUCGAGAACAUCUUCGGAUGCAGAGGAGGCAGGCUUCGGUGGCGCGAUAGCGCCAACGUCCUCAACCUCCAAUGCAUCCCACCACAUGAUGAUGCUUCAAGAGCCUUGGUUUUUUG,-4.63
